Experimental data published in patent US20260062488A1.

Assays:
[1] = biological target: human α4β7 integrin (human) (UniProt P13612); experiment: blockade of HuT78 adhesion to coated VCAM-1 hFc, experiment 1
[2] = biological target: human α4β7 integrin (human) (UniProt P13612); experiment: blockade of HuT78 adhesion to coated VCAM-1 hFc, experiment 2
[3] = biological target: human α4β7 integrin (human) (UniProt P13612); experiment: blockade of HuT78 adhesion to coated VCAM-1 hFc, experiment 3
[4] = biological target: human α4β7 integrin (human) (UniProt P13612); experiment: blockade of HuT78 adhesion to coated VCAM-1 hFc, average N = 3
[5] = biological target: human α4β7 integrin (human) (UniProt P13612); experiment: FACS titration on BaF3-hα4β7
[6] = biological target: cynomolgus αEβ7 integrin (cynomolgus monkey); experiment: FACS, 1 µg/ml, BaF3-cαEβ7 cells
[7] = biological target: human α4β7 integrin (human) (UniProt P13612); experiment: FACS, 1 µg/ml, BaF3-hα4β7 cells
[8] = biological target: human αEβ7 integrin (human) (UniProt P38570); experiment: FACS, 1 µg/ml, BaF3-hαEβ7 cells
[9] = biological target: cynomolgus α4β7 integrin (cynomolgus monkey); experiment: FACS, 1 µg/ml, CHOK1-cα4β7 cells
[10] = biological target: human α4β1 integrin (human) (UniProt P05556); experiment: FACS, 1 µg/ml, CHOK1-hα4β1 cells
[11] = biological target: mouse α4β7 integrin (mouse) (UniProt Q00651); experiment: FACS, 1 µg/ml, CHOK1-mα4β7 cells
mouse α4β7 integrin (mouse), sequence (Q00651 41-1039, chain 1 of 2): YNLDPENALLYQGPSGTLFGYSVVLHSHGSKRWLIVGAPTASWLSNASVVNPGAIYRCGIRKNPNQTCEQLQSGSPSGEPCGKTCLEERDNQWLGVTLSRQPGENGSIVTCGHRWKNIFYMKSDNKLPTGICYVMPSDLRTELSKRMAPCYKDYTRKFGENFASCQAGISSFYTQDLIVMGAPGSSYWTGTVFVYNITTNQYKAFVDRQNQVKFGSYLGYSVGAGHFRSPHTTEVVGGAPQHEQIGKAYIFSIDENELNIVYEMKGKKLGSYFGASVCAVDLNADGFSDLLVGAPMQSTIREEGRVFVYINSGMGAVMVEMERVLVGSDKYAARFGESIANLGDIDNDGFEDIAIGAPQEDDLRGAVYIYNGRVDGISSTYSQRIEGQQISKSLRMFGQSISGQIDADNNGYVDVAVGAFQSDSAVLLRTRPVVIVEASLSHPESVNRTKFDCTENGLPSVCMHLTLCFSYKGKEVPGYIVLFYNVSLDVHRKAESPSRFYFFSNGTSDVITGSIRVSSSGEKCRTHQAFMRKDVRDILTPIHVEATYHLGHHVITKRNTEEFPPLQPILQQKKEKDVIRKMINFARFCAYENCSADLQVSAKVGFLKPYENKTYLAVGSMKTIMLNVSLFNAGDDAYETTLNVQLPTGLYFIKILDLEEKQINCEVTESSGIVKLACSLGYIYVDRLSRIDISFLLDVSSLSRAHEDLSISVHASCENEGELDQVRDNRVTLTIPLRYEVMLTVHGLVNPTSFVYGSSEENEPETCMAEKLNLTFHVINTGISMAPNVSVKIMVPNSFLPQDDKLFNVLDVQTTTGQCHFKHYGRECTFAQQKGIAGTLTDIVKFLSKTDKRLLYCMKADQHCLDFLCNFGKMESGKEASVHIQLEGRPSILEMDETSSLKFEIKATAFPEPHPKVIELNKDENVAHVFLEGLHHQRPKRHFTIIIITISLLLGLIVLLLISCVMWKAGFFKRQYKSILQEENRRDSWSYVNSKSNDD
mouse α4β7 integrin (mouse), sequence (P26011 20-806, chain 2 of 2, further chain): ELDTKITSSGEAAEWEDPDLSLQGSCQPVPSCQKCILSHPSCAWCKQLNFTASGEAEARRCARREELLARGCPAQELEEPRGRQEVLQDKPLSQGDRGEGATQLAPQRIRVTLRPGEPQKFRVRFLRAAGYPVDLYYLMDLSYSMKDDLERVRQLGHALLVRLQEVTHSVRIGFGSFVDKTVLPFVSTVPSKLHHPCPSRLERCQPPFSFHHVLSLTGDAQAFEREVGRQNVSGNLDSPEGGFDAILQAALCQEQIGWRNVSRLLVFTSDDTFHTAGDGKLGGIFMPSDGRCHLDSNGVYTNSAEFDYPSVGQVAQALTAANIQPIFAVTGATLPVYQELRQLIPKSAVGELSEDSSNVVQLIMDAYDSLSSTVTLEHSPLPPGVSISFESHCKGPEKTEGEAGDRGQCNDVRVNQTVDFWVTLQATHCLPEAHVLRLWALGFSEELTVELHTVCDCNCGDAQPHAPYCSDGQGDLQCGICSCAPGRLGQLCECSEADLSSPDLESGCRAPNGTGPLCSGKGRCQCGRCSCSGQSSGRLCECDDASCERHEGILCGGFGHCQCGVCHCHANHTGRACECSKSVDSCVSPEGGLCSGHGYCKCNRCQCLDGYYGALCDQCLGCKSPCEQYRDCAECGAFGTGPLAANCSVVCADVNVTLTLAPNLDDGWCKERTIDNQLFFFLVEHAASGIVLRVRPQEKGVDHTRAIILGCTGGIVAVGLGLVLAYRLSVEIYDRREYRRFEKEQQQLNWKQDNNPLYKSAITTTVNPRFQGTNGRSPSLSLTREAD

[12] = biological target: human α4β7 integrin (human) (UniProt P13612); experiment: FACS, primary human CD4+ memory T cells
[13] = biological target: human α4β7 integrin (human) (UniProt P13612); experiment: blockade of HuT78 cell adhesion to MAdCAM-1
[14] = biological target: cynomolgus α4β7 integrin (cynomolgus monkey); experiment: blockade of CHOK1/cα4β7 adhesion to MAdCAM-1
[15] = biological target: cynomolgus α4β7 integrin (cynomolgus monkey); experiment: blockade of CHOK1-cα4β7 cell adhesion to MAdCAM-1
[16] = biological target: human α4β7 integrin (human) (UniProt P13612); experiment: competitive FACS, 50x excess of non-labelled competitor Ab-m1
[17] = biological target: human α4β7 integrin (human) (UniProt P13612); experiment: competitive FACS, 50x excess of non-labelled competitor Ab-Abri
[18] = biological target: human α4β7 integrin (human) (UniProt P13612); experiment: competitive FACS, 50x excess of non-labelled competitor Ab-Etro
[19] = biological target: human α4β7 integrin (human) (UniProt P13612); experiment: competitive FACS, 50x excess of non-labelled competitor Ab-Vedo
[20] = biological target: human α4β7 integrin (human) (UniProt P13612); experiment: row IC50 (pM) HuT78 of the binning table (assay not explained, presumably adhesion to MAdCAM-1)

| EC50 [5] [nM] | Max MFI [5] [MFI] | FACS MFI [6] [MFI] | FACS MFI [7] [MFI] | FACS MFI [8] [MFI] | FACS MFI [9] [MFI] | FACS MFI [10] [MFI] | FACS MFI [11] [MFI] | EC50 [12] [pM] | IC50 [13] [nM] | Max inhibition (%) [13] [%] | IC50 [14] [nM] | IC50 [15] [nM] | Max inhibition (%) [15] [%] | percentage of binding inhibition [16] [%] | percentage of binding inhibition [17] [%] | percentage of binding inhibition [18] [%] | percentage of binding inhibition [19] [%] | IC50 [20] [nM] | Binder | also measured |
| --- | --- | --- | --- | --- | --- | --- | --- | --- | --- | --- | --- | --- | --- | --- | --- | --- | --- | --- | --- | --- |
|  |  |  |  |  |  |  |  |  |  |  |  |  |  |  |  |  |  |  | Ab-Nata (antibody, INN chains, looked up, V domains shown) VH: QVQLVQSGAEVKKPGASVKVSCKASGFNIKDTYIHWVRQAPGQRLEWMGRIDPANGYTKYDPKFQGRVTITADTSASTAYMELSSLRSEDTAVYYCAREGYYGNYGVYAMDYWGQGTLVTVSS VL: DIQMTQSPSSLSASVGDRVTITCKTSQDINKYMAWYQQTPGKAPRLLIHYTSALQPGIPSRFSGSGSGRDYTFTISSLQPEDIATYYCLQYDNLWTFGQGTKVEIKR | IC50 [1]: 0.038 nM; IC50 [2]: 0.054 nM; IC50 [3]: 0.077 nM; IC50 [4]: 0.056 nM |
| 0.705 | 951 | 247 | 440 | 73.2 | 97.2 | 4.53 | 92.2 | 5.4 | 0.0178 | 104 | 0.0499 | 0.241 | 91.5 | -1 | 60 | 93 | 6 | 0.0178 | Ab-Etro (antibody, INN chains, looked up, V domains shown, IgG1 Alexa488 conjugate) VH: EVQLVESGGGLVQPGGSLRLSCAASGFFITNNYWGWVRQAPGKGLEWVGYISYSGSTSYNPSLKSRFTISRDTSKNTFYLQMNSLRAEDTAVYYCARTGSSGYFDFWGQGTLVTVSS VL: DIQMTQSPSSLSASVGDRVTITCRASESVDDLLHWYQQKPGKAPKLLIKYASQSISGVPSRFSGSGSGTDFTLTISSLQPEDFATYYCQQGNSLPNTFGQGTKVEIK |  |
| 0.679 | 775 | 68.3 | 624 | 9.81 | 89.8 | 4.25 | 2.87 | 4.9 | 0.0129 | 103 | 0.0509 | 0.0994 | 95.9 | 73 | 89 | 80 | 88 | 0.0129 | Ab-Abri (antibody, INN chains, looked up, V domains shown, IgG2 Alexa488 conjugate) VH: QVQLVQSGAEVKKPGASVKVSCKVSGYTLSDLSIHWVRQAPGKGLEWMGGFDPQDGETIYAQKFQGRVTMTEDTSTDTAYMELSSLKSEDTAVYYCATGSSSSWFDPWGQGTLVTVSS VL: DIQMTQSPSSVSASVGDRVTITCRASQGISSWLAWYQQKPGKAPKLLIYGASNLESGVPSRFSGSGSGTDFTLTISSLQPEDFANYYCQQANSFPWTFGQGTKVEIK |  |
